The values that follow come from article PMC2408619, “Selective Ligand Recognition by a Diversity-Generating Retroelement Variable Protein” (PLoS Biology, 2008).

For assay [1], the target named is T1, Biotinylated Prn-E (pertactin residues 38-640 with N-terminal biotinylation sequence) (B. bronchiseptica, UniProt Q03035 38-640, biotin (in vivo biotinylation of the N-terminal biotinylation sequence)).
T1 construct: Pertactin of B. bronchiseptica, ectodomain residues 38-640; also called immobilized pertactin
T1 sequence: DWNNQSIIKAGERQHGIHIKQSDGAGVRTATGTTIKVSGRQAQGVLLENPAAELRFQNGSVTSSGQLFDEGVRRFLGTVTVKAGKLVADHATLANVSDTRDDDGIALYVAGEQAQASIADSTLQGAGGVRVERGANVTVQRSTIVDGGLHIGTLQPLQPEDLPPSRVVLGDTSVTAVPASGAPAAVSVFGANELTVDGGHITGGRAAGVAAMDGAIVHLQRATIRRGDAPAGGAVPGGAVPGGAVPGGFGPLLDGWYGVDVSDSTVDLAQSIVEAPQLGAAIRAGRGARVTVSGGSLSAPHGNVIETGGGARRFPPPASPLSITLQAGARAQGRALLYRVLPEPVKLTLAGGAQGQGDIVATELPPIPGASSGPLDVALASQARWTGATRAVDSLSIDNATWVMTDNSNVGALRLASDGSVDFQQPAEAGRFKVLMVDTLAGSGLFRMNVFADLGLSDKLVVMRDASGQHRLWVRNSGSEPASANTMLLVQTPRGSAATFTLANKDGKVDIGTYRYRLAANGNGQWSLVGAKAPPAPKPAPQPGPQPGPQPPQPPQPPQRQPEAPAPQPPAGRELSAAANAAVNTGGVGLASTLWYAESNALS
As to the kind of experiment: SPR; Biacore 3000, 25 °C; ~100 RU biotinylated Prn-E on a streptavidin chip; Mtd proteins injected in 150 mM NaCl, 50 mM Tris pH 8.0, 0.005% Tween 20 at 30 μl/min; single-site model, global fit, six concentrations, duplicate. To be noted: both partners purified. For orientation: Surface plasmon resonance follows binding to a sensor surface in real time, without labels.

Assay [2] concerns the target T2, His-tagged ectodomain of B. bronchiseptica pertactin (Prn-E; residues 38-640) (B. bronchiseptica, UniProt Q03035 38-640).
T2 construct: Pertactin of B. bronchiseptica, 60 kDa ectodomain, residues 38-640 of the 93 kDa precursor; the loop deletion mutants carry an N-terminal His tag from pET28b; also called wild-type Prn-E; His-tagged Prn-E
T2 sequence: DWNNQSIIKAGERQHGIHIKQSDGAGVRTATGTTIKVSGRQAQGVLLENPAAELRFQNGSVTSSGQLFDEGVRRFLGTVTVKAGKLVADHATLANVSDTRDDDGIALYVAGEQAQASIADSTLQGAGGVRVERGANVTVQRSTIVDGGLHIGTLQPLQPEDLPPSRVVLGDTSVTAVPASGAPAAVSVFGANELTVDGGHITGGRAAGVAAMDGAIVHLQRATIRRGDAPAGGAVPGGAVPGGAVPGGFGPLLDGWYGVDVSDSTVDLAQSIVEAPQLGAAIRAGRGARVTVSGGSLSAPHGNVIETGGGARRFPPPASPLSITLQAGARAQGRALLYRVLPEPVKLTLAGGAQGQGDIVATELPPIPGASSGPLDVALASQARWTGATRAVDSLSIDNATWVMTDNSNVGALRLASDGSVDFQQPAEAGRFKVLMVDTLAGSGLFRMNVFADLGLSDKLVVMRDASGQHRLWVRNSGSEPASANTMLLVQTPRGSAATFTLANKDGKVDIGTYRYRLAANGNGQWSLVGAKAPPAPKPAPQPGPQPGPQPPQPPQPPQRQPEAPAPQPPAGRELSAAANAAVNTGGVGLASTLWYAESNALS
Nature of the assay: crystal structure; Mtd-P1·Prn-E complex formed with ~1.6-fold molar excess of Mtd-P1 trimers over His-tagged Prn-E, isolated by Ni2+-chelation and Superdex 200; crystals at 25 °C in 2 M NaCl, 100 mM Tris pH 8.5, 200 mM Li2SO4; 3.16 Å. To be noted: both partners purified.

Assay [3] concerns the target T1, Biotinylated Prn-E (pertactin residues …). As to the kind of experiment: SPR; Biacore 3000, 25 °C; ~100 RU biotinylated Prn-E on a streptavidin chip; whole phage injected (BPP-1 ~1.2-3.7 × 10^-15 M, BPP-6 ~1-2 × 10^-16 M, BIP-1 8.3 × 10^-16 to 8.3 × 10^-15 M, BMP-1 e.g. 3.68 × 10^-15 M); multivalent; single-site model, global fit. To be noted: one partner purified.

B1: Bordetella bacteriophage major tropism determinant variant Mtd-P1 (natural protein)
chain: MSTAVQFRGGTTAQHATFTGAAREITVDTDKNTVVVHDGATAGGFPLARHDLVKTAFIKADKSAVAFTRTGNATASIKAGTIVEVNGKLVQFTADTAITMPALTAGTDYAIYVCDDGTVRADSNFSAPTGYTSTTARKVGGFHYAPGSNAAAQAGGNTTAQINEYSLWDIKFRPAALDPRGMTLVAGAFWADIYLLGVNHLTDGTSKYNVTIADGSASPKKSTKFGGDGSAAYSDGAWYNFAEVMTHHGKRLPNYNEFQALAFGTTEATSSGGTDVPTTGVNGTGATSAWNIFTSKWGVVQASGCLWTWGNEFGGVNGASEYTANTGGRGSVYAQPAAALFGGAWNGTSLSGSRAALWYSGPSFSFAFFGARGVCDHLILE
notes: Major tropism determinant (Mtd), variant P1, expressed by Bordetella bacteriophage BPP-1; Mtd has 381 residues in total; trimer of 120 kDa
The term Kd denotes the equilibrium constant for the complex coming apart. A high value points to a looser complex. In general, kon refers to the rate constant with which the complex forms. Take B1: in assay [1], the Kd was determined as 3470 ± 130 nM and the kon is about 10000 M⁻¹ s⁻¹. In addition, the “stoichiometry N” value in assay [2] is 3 Mtd-P1 protomers per Prn-E.

B2: BPP-1 phage displaying Mtd-P1 (other)
chain: MSTAVQFRGGTTAQHATFTGAAREITVDTDKNTVVVHDGATAGGFPLARHDLVKTAFIKADKSAVAFTRTGNATASIKAGTIVEVNGKLVQFTADTAITMPALTAGTDYAIYVCDDGTVRADSNFSAPTGYTSTTARKVGGFHYAPGSNAAAQAGGNTTAQINEYSLWDIKFRPAALDPRGMTLVAGAFWADIYLLGVNHLTDGTSKYNVTIADGSASPKKSTKFGGDGSAAYSDGAWYNFAEVMTHHGKRLPNYNEFQALAFGTTEATSSGGTDVPTTGVNGTGATSAWNIFTSKWGVVQASGCLWTWGNEFGGVNGASEYTANTGGRGSVYAQPAAALFGGAWNGTSLSGSRAALWYSGPSFSFAFFGARGVCDHLILE
notes: Major tropism determinant (Mtd), variant P1, at the ends of the tail fibers of whole BPP-1 phage; 381 residues; Whole phage particle; The other phage proteins are not written; also called BPP-1(Δbrt); source: phage harvested from B. bronchiseptica RB50 cultures, concentrated by centrifugation and ultrafiltration
The molecule B2 gave a Kd in assay [3] of 0.00689 ± 0.00177 nM.
